Test results reported in the supplement of paper PMC7125110.
± gives the standard error. For part of these data: This sample holds only a part of the variants without activity.

B1: glmS ribozyme (parent)
chain: AUAAAAGCGCCAGAACUACAGAAAUGUAGUUGACGAGGAGGAGGUUUAUCGAAUUUUCGGCGGAUGCCUCCAAA

What was measured:
Settings in all cases: with glucosamine-6-phosphate
glucosamine-6-phosphate [1] = variants of: B1; assay: kcat; higher = faster cleavage; RNA array
How it was run: (§1)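 kobs was derived by fitting per-tile medians to one- or two-exponential decays after normalising signals to baseline and to non-cleaving reference variants. Those signals came from barcoded ribozyme variants transcribed in situ by E. coli RNA polymerase on sequenced MiSeq chips, followed through a hybridised Cy3 probe at 37 °C and imaged over ~14 h. Glucosamine-6-phosphate (40 μM to 10 mM) in HEPES/KCl/Mg(OAc)2 buffer was flowed in. Weighted Michaelis–Menten fits across concentrations then gave kcat and KM.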

glucosamine-6-phosphate [2] = variants of: B1; assay: KM; higher = weaker cofactor use; RNA array
How it was run: as §1

glucosamine-6-phosphate [3] = variants of: B1; assay: self-cleavage kobs at 640 uM GlcN6P; higher = faster cleavage; RNA array
How it was run: as §1

glucosamine-6-phosphate [4] = variants of: B1; assay: self-cleavage kobs at 2500 uM GlcN6P; higher = faster cleavage; RNA array
How it was run: as §1

glucosamine-6-phosphate [5] = variants of: B1; assay: self-cleavage kobs at 10000 uM GlcN6P; higher = faster cleavage; RNA array
How it was run: as §1

glucosamine-6-phosphate [6] = variants of: B1; assay: self-cleavage kobs at 40 uM GlcN6P; higher = faster cleavage; RNA array
How it was run: as §1

glucosamine-6-phosphate [7] = variants of: B1; assay: self-cleavage kobs at 160 uM GlcN6P; higher = faster cleavage; RNA array
How it was run: as §1

| Variant | kcat (glucosamine-6-phosphate [1]) [s⁻¹] | KM (glucosamine-6-phosphate [2]) [µM] | self-cleavage kobs at 640 uM GlcN6P (glucosamine-6-phosphate [3]) [s⁻¹] | self-cleavage kobs at 2500 uM GlcN6P (glucosamine-6-phosphate [4]) [s⁻¹] | self-cleavage kobs at 10000 uM GlcN6P (glucosamine-6-phosphate [5]) [s⁻¹] | self-cleavage kobs at 40 uM GlcN6P (glucosamine-6-phosphate [6]) [s⁻¹] | self-cleavage kobs at 160 uM GlcN6P (glucosamine-6-phosphate [7]) [s⁻¹] |
| --- | --- | --- | --- | --- | --- | --- | --- |
| G40A U45C C70U | 0.000583 ± 6.9e-05 | 2900 ± 550 | 0.000105 ± 2.7e-05 | 0.000288 ± 8e-05 | 0.000432 ± 0.00015 |  |  |
| U47G U57A | 0.000141 ± 1.3e-05 | 1670 ± 420 | 4.42e-05 ± 1.5e-05 | 7.57e-05 ± 2.1e-05 | 0.000125 ± 2.4e-05 |  |  |
| G13U G37U | < 1e-05 |  | < 1e-05 |  | < 1e-05 |  |  |
| A15G U54G | 0.0486 ± 0.02 | 2200 ± 1000 | 0.00802 ± 0.0015 | 0.0243 ± 0.0097 | 0.0509 ± 0.011 | 0.000945 ± 8.8e-05 | 0.00385 ± 0.00091 |
| U45G A48G | 2.93e-05 ± 2.6e-06 | 2270 ± 860 |  |  |  |  |  |
| A42U U54C | 0.00019 ± 4.1e-05 |  | 6.5e-05 ± 1.1e-05 | 0.00024 ± 3.8e-05 | 0.000159 ± 1.7e-05 |  |  |
| A33U A53G C70U | 0.000178 ± 1.5e-05 |  |  |  | 5.75e-05 ± 9.2e-06 |  |  |
| A15U U57C | 8.55e-05 ± 5e-06 | 4690 ± 680 |  | 2.97e-05 ± 8.8e-06 | 5.82e-05 ± 8.1e-06 |  | < 1e-05 |
| G13A U30A | 0.000292 ± 4.6e-05 | 3630 ± 960 | 3.94e-05 ± 1.3e-05 | 0.000128 ± 2.3e-05 | 0.000202 ± 5.4e-05 |  | < 1e-05 |
| C16A A39G | 0.00326 ± 0.00026 | 2130 ± 240 | 0.000731 ± 0.00012 | 0.00177 ± 0.00034 | 0.00273 ± 0.00053 | 6.75e-05 ± 1.4e-05 | 0.000212 ± 5.3e-05 |
| A39U U69A | 0.000214 ± 3.6e-05 | 2430 ± 770 | 5.02e-05 ± 1.2e-05 | 0.000105 ± 1.3e-05 | 0.000197 ± 5.6e-05 |  |  |
| G13A U57A | 5.51e-05 ± 4.2e-06 | 370 ± 130 |  | 4.76e-05 ± 1.5e-05 |  |  |  |
| U31A U47C | 0.0025 ± 0.0005 | 3290 ± 980 | 0.000511 ± 0.00012 | 0.00117 ± 0.00017 | 0.00174 ± 0.00034 | 3.34e-05 ± 1.3e-05 | 9.34e-05 ± 2.4e-05 |
| G38C G40A | < 1e-05 |  |  |  | < 1e-05 |  | < 1e-05 |
| A36C A52U U56G U65A U69A | 2.16e-05 ± 2.7e-06 |  |  |  |  |  |  |
| G37C A64C | 1.32e-05 ± 3.3e-06 |  |  |  | < 1e-05 |  |  |
| C10A A12C | 0.00025 ± 4.4e-05 | 2520 ± 930 | 4.03e-05 ± 8.4e-06 | 0.000143 ± 1.2e-05 | 0.000185 ± 1.9e-05 |  |  |
